Each block holds one binder with its values, some of them ahead of it.
Assays:
[1] = target: endogenous cell surface PD-1 on activated CD4 T cells (human, UniProt Q15116 25-288); experiment: cell-based or functional assay
PD-1 Fc fusion protein = target: T1, PD-1 Fc fusion protein (human, UniProt Q15116 25-167, limits assumed); experiment: FIG. 5A; Luminex, PD-1 Fc beads, antibody titrated, competitor: fixed biotinylated PD-L1
T1 construct: construct limits, linker and Fc not described; the bead protein is printed only as 'PD-1 Fc fusion protein'; also called human PD-1 Fc fusion protein; PD-1 Fc fusion protein coated beads
T1 sequence (Q15116 25-167 limits assumed): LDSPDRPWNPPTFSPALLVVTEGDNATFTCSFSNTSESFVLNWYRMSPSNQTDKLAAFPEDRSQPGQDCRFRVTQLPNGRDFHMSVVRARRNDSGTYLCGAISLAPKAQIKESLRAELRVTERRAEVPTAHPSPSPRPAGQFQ

Sequence of endogenous cell surface PD-1 on activated CD4 T cells (Q15116 25-288): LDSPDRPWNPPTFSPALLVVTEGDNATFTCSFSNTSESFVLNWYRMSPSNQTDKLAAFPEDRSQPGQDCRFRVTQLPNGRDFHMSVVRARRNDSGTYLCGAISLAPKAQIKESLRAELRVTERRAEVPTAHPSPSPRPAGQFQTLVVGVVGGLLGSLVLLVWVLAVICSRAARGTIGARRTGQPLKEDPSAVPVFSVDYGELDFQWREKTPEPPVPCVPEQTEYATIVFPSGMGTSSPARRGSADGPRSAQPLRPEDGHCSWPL

EFRA % relative to peptide stimulation alone [1]: 250%
IC50 (PD-1 Fc fusion protein): ~200 pM
B1: 137F2 (antibody, V domains shown)
VH: QVQLQQPGAELVRPGTSVKMSCKAAGYTFTNYWIGWIKQRPGHGLEWIGDIYPGGGYTNYNEKFKGKATLTADTSSSTAYMQVSSLTSEDTGIYYCARGYDFVLDRWGQGTSVTVSS
VL: DIVMSQSPSSLAVSTGEKVTMTCKSSQSLFNSETQKNYLAWYQQKPGQPPKLLIFWASTRESGVPDRFLGSGSGTDFTLTISSVQAEDLAVYYCKQSYTLRTFGGGTKLEIK

EFRA % relative to peptide stimulation alone [1]: 195%
B2: 135C12 (antibody, V domains shown)
VH: EVQLHQSGPELLKPGASVRMSCKASGYTFTNFYIHWVKQSHGKSIEWIGSIYPNYGDTAYNQKFKDKATLTVDKSSSTAYMALRSLTSEDSAVYYCARGYSYAMDYWGQGTSVTVSS
VL: NIVMTQSPKSMSMSVGERVTLTCKASENVVTYVSWYQQKPEQSPKLLIYGASNRYTGVPDRFTGSGSATDFTLTISSVQAEDLADYHCGQGYSYPYTFGGGTKLEIK
